Data from publication PMC8060857.

Target: HR-N1, SARS S protein amino acids 882-973 (SARS-CoV (Urbani strain)) (UniProt P59594)
Test: AUC

Substance: HR-N1, SARS S protein amino acids 882-973 (from UniProt P59594 882-973) (domain or fragment)
- stoichiometry N: 4
